This series deals with the molecule itself. In words: cryo-EM structure.

A word on the stoichiometry N: it is a count of units in the complex or per binding partner.

B1: L-protein (BchL homodimer), electron donor component of Rhodobacter sphaeroides DPOR (enzyme)
chain: MSPKDLTIPTGADGEGSVQVHLDEADKITGAKVFAVYGKGGIGKSTTSSNLSAAFSILGKRVLQIGCDPKHDSTFTLTGSLVPTVIDVLKDVDFHPEELRPEDFVFEGFNGVMCVEAGGPPAGTGCGGYVVGQTVKLLKQHHLLDDTDVVIFDVLGDVVCGGFAAPLQHADQAVVVTANDFDSIYAMNRIIAAVQAKSKNYKVRLAGCVANRSRATDEVDRFCKETNFRRLAHMPDLDAIRRSRLKKKTLFEMDEDQDVLAARAEYIRLAESLWRGLDPIDPHSLPDRDIFELLGFD
As to B1, the “stoichiometry N” value is 2.

The values above are taken from article doi:10.1101/2024.04.26.590571 (bioRxiv, 2024).
